Data reported in publication PMC7078158, “Enzymes Catalyzing Crotonyl-CoA Conversion to Acetoacetyl-CoA During the Autotrophic CO2 Fixation in Metallosphaera sedula” (Frontiers in Microbiology, 2020).

How the values were obtained:
Format in all cases: biochemical, Metallosphaera sedula
[1] = substrate: C[C@H](O)CC(=O)SCCNC(=O)CCNC(=O)[C@H](O)C(C)(C)COP(=O)(O)OP(=O)(O)OC[C@H]1O[C@@H](n2cnc3c(N)ncnc32)[C@H](O)[C@@H]1OP(=O)(O)O; assay: (S)-3-hydroxybutyryl-CoA dehydrogenase assay with NAD; details: dehydrogenase reaction with NAD, 65 °C, apparent Km
Source text: (S)-3-hydroxybutyryl-CoA dehydrogenase assay with NAD on crotonyl-CoA hydratase/(S)-3-hydroxybutyryl-CoA dehydrogenase Msed_0399

[2] = substrate: CCCCC/C=C/C(=O)SCCNC(=O)CCNC(=O)[C@H](O)C(C)(C)COP(=O)(O)OP(=O)(O)OC[C@H]1O[C@@H](n2cnc3c(N)ncnc32)[C@H](O)[C@@H]1OP(=O)(O)O; assay: UHPLC, 3-hydroxyoctanoyl-CoA formation; details: hydratase reaction, 65 °C, apparent Km, buffer in general 100 mM Tris-HCl pH 7.8
Source text: UHPLC, 3-hydroxyoctanoyl-CoA formation on crotonyl-CoA hydratase/(S)-3-hydroxybutyryl-CoA dehydrogenase Msed_0399

[3] = substrate: CC(C)(COP(=O)(O)OP(=O)(O)OC[C@H]1O[C@@H](n2cnc3c(N)ncnc32)[C@H](O)[C@@H]1OP(=O)(O)O)[C@@H](O)C(=O)NCCC(=O)NCCSC(=O)CCO; assay: Ccr-coupled assay, acryloyl-CoA formation, UHPLC; details: dehydratase reaction, 100 mM MOPS/KOH pH 7.0, 42 °C, 1 mM NADPH and NaHCO3 for coupling enzyme, apparent Km
Source text: Ccr-coupled assay, acryloyl-CoA formation, UHPLC on crotonyl-CoA hydratase/(S)-3-hydroxybutyryl-CoA dehydrogenase Msed_0399

[4] = substrate: C/C=C/C(=O)SCCNC(=O)CCNC(=O)[C@H](O)C(C)(C)COP(=O)(O)OP(=O)(O)OC[C@H]1O[C@@H](n2cnc3c(N)ncnc32)[C@H](O)[C@@H]1OP(=O)(O)O; assay: UHPLC, 3-hydroxybutyryl-CoA formation; details: hydratase reaction, 100 mM Tris-HCl pH 9, 65 °C, apparent Km
Source text: UHPLC, 3-hydroxybutyryl-CoA formation on crotonyl-CoA hydratase/(S)-3-hydroxybutyryl-CoA dehydrogenase Msed_0399

[5] = substrate: C[C@H](O)CC(=O)SCCNC(=O)CCNC(=O)[C@H](O)C(C)(C)COP(=O)(O)OP(=O)(O)OC[C@H]1O[C@@H](n2cnc3c(N)ncnc32)[C@H](O)[C@@H]1OP(=O)(O)O; assay: (S)-3-hydroxybutyryl-CoA dehydrogenase assay; details: 0.5 mM NAD, 65 °C, apparent Km
Source text: (§1) (S)-3-hydroxybutyryl-CoA dehydrogenase assay on (S)-3-hydroxybutyryl-CoA dehydrogenase Msed_1423

[6] = substrate: NC(=O)c1ccc[n+]([C@@H]2O[C@H](COP(=O)(O)OP(=O)(O)OC[C@H]3O[C@@H](n4cnc5c(N)ncnc54)[C@H](OP(=O)(O)O)[C@@H]3O)[C@@H](O)[C@H]2O)c1; assay: (S)-3-hydroxybutyryl-CoA dehydrogenase assay; details: with (S)-3-hydroxybutyryl-CoA, 65 °C, apparent Km, varied: cofactor
Source text: as §1

[7] = substrate: NC(=O)c1ccc[n+]([C@@H]2O[C@H](COP(=O)(O)OP(=O)(O)OC[C@H]3O[C@@H](n4cnc5c(N)ncnc54)[C@H](O)[C@@H]3O)[C@@H](O)[C@H]2O)c1; assay: (S)-3-hydroxybutyryl-CoA dehydrogenase assay; details: with (S)-3-hydroxybutyryl-CoA, 65 °C, apparent Km, varied: cofactor
Source text: as §1

[8] = substrate: C[C@H](O)CC(=O)SCCNC(=O)CCNC(=O)[C@H](O)C(C)(C)COP(=O)(O)OP(=O)(O)OC[C@H]1O[C@@H](n2cnc3c(N)ncnc32)[C@H](O)[C@@H]1OP(=O)(O)O; assay: (S)-3-hydroxybutyryl-CoA dehydrogenase assay; details: 0.5 mM NAD, 65 °C, apparent Km; remark: listed apart in the source
Source text: (§2) (S)-3-hydroxybutyryl-CoA dehydrogenase assay on (S)-3-hydroxybutyryl-CoA dehydrogenase Msed_0389

[9] = substrate: NC(=O)c1ccc[n+]([C@@H]2O[C@H](COP(=O)(O)OP(=O)(O)OC[C@H]3O[C@@H](n4cnc5c(N)ncnc54)[C@H](OP(=O)(O)O)[C@@H]3O)[C@@H](O)[C@H]2O)c1; assay: (S)-3-hydroxybutyryl-CoA dehydrogenase assay; details: with (S)-3-hydroxybutyryl-CoA, 65 °C, apparent Km, varied: cofactor; remark: listed apart in the source
Source text: as §2

[10] = substrate: NC(=O)c1ccc[n+]([C@@H]2O[C@H](COP(=O)(O)OP(=O)(O)OC[C@H]3O[C@@H](n4cnc5c(N)ncnc54)[C@H](O)[C@@H]3O)[C@@H](O)[C@H]2O)c1; assay: (S)-3-hydroxybutyryl-CoA dehydrogenase assay; details: with (S)-3-hydroxybutyryl-CoA, 65 °C, apparent Km, varied: cofactor; remark: listed apart in the source
Source text: as §2

[11] = substrate: CCCCC/C=C/C(=O)SCCNC(=O)CCNC(=O)[C@H](O)C(C)(C)COP(=O)(O)OP(=O)(O)OC[C@H]1O[C@@H](n2cnc3c(N)ncnc32)[C@H](O)[C@@H]1OP(=O)(O)O; assay: UHPLC, 3-hydroxyoctanoyl-CoA formation; details: hydratase reaction, 100 mM Tris-HCl pH 7.8, 65 °C, apparent Km
Source text: UHPLC, 3-hydroxyoctanoyl-CoA formation on crotonyl-CoA hydratase Msed_0336

[12] = substrate: C=C(C)C(=O)SCCNC(=O)CCNC(=O)[C@H](O)C(C)(C)COP(=O)(O)OP(=O)(O)OC[C@H]1O[C@@H](n2cnc3c(N)ncnc32)[C@H](O)[C@@H]1OP(=O)(O)O; assay: UHPLC, 3-hydroxy-2-methylpropionyl-CoA formation; details: hydratase reaction, 100 mM Tris-HCl pH 7.8, 65 °C, apparent Km
Source text: UHPLC, 3-hydroxy-2-methylpropionyl-CoA formation on crotonyl-CoA hydratase Msed_0336

[13] = substrate: C=CC(=O)SCCNC(=O)CCNC(=O)[C@H](O)C(C)(C)COP(=O)(O)OP(=O)(O)OC[C@H]1O[C@@H](n2cnc3c(N)ncnc32)[C@H](O)[C@@H]1OP(=O)(O)O; assay: UHPLC, 3-hydroxypropionyl-CoA formation; details: hydratase reaction, 100 mM Tris-HCl pH 7.8, 65 °C, apparent Km
Source text: UHPLC, 3-hydroxypropionyl-CoA formation on crotonyl-CoA hydratase Msed_0336

[14] = substrate: C/C=C/C(=O)SCCNC(=O)CCNC(=O)[C@H](O)C(C)(C)COP(=O)(O)OP(=O)(O)OC[C@H]1O[C@@H](n2cnc3c(N)ncnc32)[C@H](O)[C@@H]1OP(=O)(O)O; assay: UHPLC, 3-hydroxybutyryl-CoA formation; details: hydratase reaction, 100 mM Tris-HCl pH 7.8, 65 °C, apparent Km
Source text: UHPLC, 3-hydroxybutyryl-CoA formation on crotonyl-CoA hydratase Msed_0336

[15] = substrate: C[C@H](O)CC(=O)SCCNC(=O)CCNC(=O)[C@H](O)C(C)(C)COP(=O)(O)OP(=O)(O)OC[C@H]1O[C@@H](n2cnc3c(N)ncnc32)[C@H](O)[C@@H]1OP(=O)(O)O; assay: Ccr-coupled dehydratase assay, UHPLC; details: dehydratase reaction, 100 mM Tris-HCl pH 7.8, 42 °C, 1 mM NADPH and NaHCO3 for coupling enzyme, apparent Km
Source text: Ccr-coupled dehydratase assay, UHPLC on crotonyl-CoA hydratase Msed_0336

B1: crotonyl-CoA hydratase/(S)-3-hydroxybutyryl-CoA dehydrogenase Msed_0399 (Metallosphaera sedula DSM 5348) (protein)
chain: MKVTVIGSGVMGHGIAELAAIAGNEVWMNDISTEILQQAMERIKWSLSKLRESGSLKEGVEQVLARIHPETDQAQALKGSDFVIEAVKEDLELKRTIFRNAEAHASPSAVLATNTSSLPISEIASVLKSPQRVVGMHFFNPPVLMPLVEIVRGKDTSDEVVKTTAEMAKSMNKETIVVKDVPGFFVNRVLLRIMEAGCYLVEKGIASIQEVDSSAIEELGFPMGVFLLADYTGLDIGYSVWKAVTARGFKAFPCSSTEKLVSQGKLGVKSGSGYYQYPSPGKFVRPTLPSTSKKLGRYLISPAVNEVSYLLREGIVGKDDAEKGCVLGLGLPKGILSYADEIGIDVVVNTLEEMRQTSGMDHYSPDPLLLSMVKEGKLGRKSGQGFHTYAHEEAKYSTIVVRVEPPLAWIVLNRPTRYNAINGDMIREINQALDSLEEREDVRVIAITGQGRVFSAGADVTEFGSLTPVKAMIASRKFHEVFMKIQFLTKPVIAVINGLALGGGMELALSADFRVASKTAEMGQPEINLGLIPGGGGTQRLSRLSGRKGLELVLTGRRVKAEEAYRLGIVEFLAEPEELESEVRKLANAIAEKSPLAVASAKLAYKLGEETHIWTGTSLEASLFGLLFSTKDFEEGVRAFLEKRKPNFRGE
notes: full-length, untagged, recombinant in E. coli Rosetta 2 (DE3); N-terminal dehydrogenase domain (~40 kDa), C-terminal enoyl-CoA hydratase domain (~20 kDa)
In the case of B1, the Km [1] is reported as 120 ± 10 µM, the Km [2] is reported as 80 ± 10 µM and the Km [3] is reported as 60 ± 20 µM. The Km [4] was 970 ± 70 µM.

B2: (S)-3-hydroxybutyryl-CoA dehydrogenase Msed_1423 (Metallosphaera sedula DSM 5348) (protein)
chain: MRIAVVGSGTMGHGIAEVAAMAGMEVKLIDISWDILNRAKERMYDSLKRLHERGTIRETPDTVMSRIEISVSYDVAKDVDFAIEAVPEILELKRKVFQELDRVVPKESILATNTSSIPISDIGEITSRKEKVIGMHFFNPPPLMKLVEVIPSKYTSEDVTRYTVELAKKMGKTPVRLRVEVPGFVSNRIFLRLLQEACREVESGEATIEEVDSSARNKLKLPMGIFELADYVGLDVAVDLWKVIVERGASDVKCSSYKERVDRKELGVKTGKGFYTYPAPGKYSKVSLPPESKVPPERIISLAVNEGAWLIENNIVNAEEIDTVMRLGFNFPKGLLEMADELGLDKILNALREIHSRGYEAYSPNPLLVKMVSQGQTGKSSGRGFYTYGKT
notes: full-length, N-terminal His10-tag (pET16b), recombinant in E. coli Rosetta 2 (DE3)
With B2 the Km [5] was 5 ± 2 µM, the Km [6] was 5100 ± 500 µM and the Km [7] was 30 ± 3 µM.

B3: (S)-3-hydroxybutyryl-CoA dehydrogenase Msed_0389 (Metallosphaera sedula DSM 5348) (protein)
chain: MKVFVIGSGVMGSGIGQVFAMAGHEVTLYDVKEEALKKAMEGIRWSLQKLQEKGSVKDVESVLSRIFTSRDLSEARDHLVIEAVFEDIKVKSDVLGRVSPLTDEIIASNTSSLPITELSRAVRNPERFLGMHFFNPPVLMKLVEVIRGDNTSEERFREALDIVKSLGKYPLPVRKDVFGFVVNRILFRLFTSACALLTQYTPHEIDYVAIKELGMPMGLIMLLDYTGLDVNYDISKEAERRGFPFKCDVLEGMVKSGKLGRKSGQGFYDWSKGKPEVKATSGPDPRELLRGAVEEAKWLISQGVVTREELETGLKLGLGMSRGILELGEILGVH
notes: as for B2
B3 was tested, and the Km [8] was 2.6 ± 1 µM, the Km [9] was 1500 ± 300 µM and the Km [10] was 12 ± 2 µM.

B4: crotonyl-CoA hydratase Msed_0336 (Metallosphaera sedula DSM 5348) (protein)
chain: MKVLYEERDGISWITFNRPEKLNALDAESWKLLGDHVRRGDSSDSRAIVITGNGRAFSSGDDIGSMTSLNDQREAEDFFNALLYAVDGLIYTNKPVIGAVNGLAYGGGCEILLFMDVVISTRSARFSIPEGRLGLIPPMALSVGYNSIGRSVAWLAITGEEIDAMRAKEIGLVDIVGDDLNLELEKVMARISSMDQGSIKVIKAWLRKSREPIREAIRELSFMSLSTQAKERMKRFLSR
notes: as for B2
Work on B4 yielded a Km [11] of 90 ± 10 µM, a Km [12] of 290 ± 50 µM and a Km [13] of 70 ± 5 µM. For the same protein, the Km [14] was 80 ± 10 µM and the Km [15] was 70 ± 20 µM.
